{"source": "paper PMC3081348", "about": "“Kaposi's Sarcoma-Associated Herpesvirus-Encoded LANA Down-Regulates IL-22R1 Expression through a Cis-Acting Element within the Promoter Region”", "key": {"[1]": {"target": "T1, LANA-C (C-terminus of LANA) (Kaposi's sarcoma-associated herpesvirus …, UniProt Q9QR71 918-1129)", "T1 sequence (Q9QR71 918-1129)": "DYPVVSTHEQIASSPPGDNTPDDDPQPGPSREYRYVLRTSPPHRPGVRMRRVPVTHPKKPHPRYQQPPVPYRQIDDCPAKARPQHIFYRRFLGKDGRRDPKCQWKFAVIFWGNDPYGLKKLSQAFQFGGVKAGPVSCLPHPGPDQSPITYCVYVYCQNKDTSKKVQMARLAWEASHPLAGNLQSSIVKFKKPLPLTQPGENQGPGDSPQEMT", "assay": "EMSA; 4 mM Mg2+, poly(dI-dC); EMSA: 20 mM Tris/HCl pH 7.4, 100 mM NaCl, 4 mM MgCl2, 0.25 mM EDTA, 1 mM DTT, 0.5 ug poly(dI-dC), 10% glycerol, 100 ng labeled oligo, 0-400 ng LANA-C, 20 min at room temperature; 6.5% native PAGE on ice", "details": "protein: recombinant, tags: His, chain copies: 2, annealed sense and antisense oligos"}, "[2]": {"target": "T1, LANA-C (C-terminus of LANA)", "assay": "EMSA; 4 mM Mg2+, poly(dI-dC); affinity similar to LBS1; EMSA: 20 mM Tris/HCl pH 7.4, 100 mM NaCl, 4 mM MgCl2, 0.25 mM EDTA, 1 mM DTT, 0.5 ug poly(dI-dC), 10% glycerol, 100 ng labeled oligo, 0-400 ng LANA-C, 20 min at room temperature; 6.5% native PAGE on ice", "details": "protein: recombinant; tags: His; chain copies: 2; annealed sense and antisense oligos"}}, "data": [{"binder": "LBS (37 bp, TR DNA LBS1) (dsDNA) DNA 1: GCGGAATTCGGCCCCATGCCCGGGCGGGAGGCGGGAT DNA 2: ATCCCGCCTCCCGCCCGGGCATGGGGCCGAATTCCGC", "values": [{"measurement": "binding result", "setting": "[1]; label: 5'-biotin", "value": "binds"}]}, {"binder": "mLBS-like (scrambled LBS-like) (dsDNA) DNA 1: TCCCCACCGGCTCCGCGCGTGGAGCCAGCTGCCAG DNA 2: CTGGCAGCTGGCTCCACGCGCGGAGCCGGTGGGGA", "values": [{"measurement": "binding result", "setting": "[1]", "value": "no binding"}]}, {"binder": "LBS-like (IL-22R1 promoter -69 to -34) (dsDNA) DNA 1: TCCCCGCCCCATGCCCGGGTGGAGCCAGCTGCCAG DNA 2: CTGGCAGCTGGCTCCACCCGGGCATGGGGCGGGGA", "values": [{"measurement": "binding result", "setting": "[2]", "value": "binds"}]}]}
